This note sets out measurements from EP4628506A1, “PREPARATION METHOD FOR AND USE OF CD70-SPECIFIC INTEGRATED DIAGNOSIS AND TREATMENT MOLECULAR IMAGING PROBE” (Renji Hospital, Shanghai Jiao Tong University School of …, priority 2022, dated 2024).

In data set [1] the target is T1, recombinant human serum albumin (human, UniProt P02768 25-609).
T1 construct: Immobilised on Biacore chips
Kind of data set: SPR (Biacore), recombinant human serum albumin immobilised, fusion protein as mobile phase.

The target of data set [2] is T2, extracellular domain of human recombinant CD70 (human, UniProt P32970 39-193).
T2 construct: extracellular domain; Immobilised on Biacore chips; also called human CD70; CD27 ligand
T2 sequence (looked up): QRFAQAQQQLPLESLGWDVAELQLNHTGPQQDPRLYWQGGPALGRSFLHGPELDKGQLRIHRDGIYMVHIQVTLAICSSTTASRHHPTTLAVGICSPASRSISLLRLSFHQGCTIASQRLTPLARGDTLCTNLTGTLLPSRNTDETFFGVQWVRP
Kind of data set: SPR (Biacore), CD70 extracellular domain immobilised, fusion protein as mobile phase.

Data set [3] concerns the target T3, recombinant murine serum albumin (murine, UniProt P07724 25-608).
T3 construct: Immobilised on Biacore chips
Kind of data set: SPR (Biacore), recombinant murine serum albumin immobilised, fusion protein as mobile phase. (In general: SPR reads the build-up and loss of mass on a sensor chip optically.)

The target of data set [4] is T2, extracellular domain of human …. Kind of data set: SPR (Biacore), CD70 extracellular domain immobilised, nanobody as mobile phase.
The test system of the next data set is RCC models (No. 62 PDX). On the set-up: species or system mice. The settings on record: mouse, in vivo. The text has this: Renal cell carcinoma (RCC) patient-derived xenograft (PDX) models, No. 62 PDX, positive in expression of CD70 were identified by immunohistochemical (IHC) staining using an antihuman CD70 monoclonal antibody (E3Q1A, 69209, Cell Signaling Technology) as a primary antibody, as shown in FIG. 3. RCC PDX models were established by subcutaneously inoculating 2mm×2mm×2mm No. 62 PDX tissue chunks into right shoulder of NCG (NOD-Prkdcem26Cd52Il2rgem26Cd22/Nju) mice.
PET/CT images of small animals involved in these tests were all captured using an IRIS small-animal PET/CT scanner (Inviscan Imaging Systems). Each murine model (three in each group) was injected with 3.7-7.4 MBq of [^68Ga]Ga-NOTA-B3 or [^68Ga]Ga-NOTA-B6 via the tail vein. One hour after the injection, the mice were anesthetized with isoflurane mixed in oxygen (at a concentration of 2%). After being deeply anesthetized, the mice were placed supine on the PET/CT scanning bed, and PET and CT images were captured sequentially. […]
The same operations as in step 2) above were performed. […] ROI uptake in the tumor and major tissues and organs (heart, liver, lungs, kidneys, muscles, spleen and bones) was analyzed and plotted against time. […]

T1 sequence (P02768 25-609 limits assumed): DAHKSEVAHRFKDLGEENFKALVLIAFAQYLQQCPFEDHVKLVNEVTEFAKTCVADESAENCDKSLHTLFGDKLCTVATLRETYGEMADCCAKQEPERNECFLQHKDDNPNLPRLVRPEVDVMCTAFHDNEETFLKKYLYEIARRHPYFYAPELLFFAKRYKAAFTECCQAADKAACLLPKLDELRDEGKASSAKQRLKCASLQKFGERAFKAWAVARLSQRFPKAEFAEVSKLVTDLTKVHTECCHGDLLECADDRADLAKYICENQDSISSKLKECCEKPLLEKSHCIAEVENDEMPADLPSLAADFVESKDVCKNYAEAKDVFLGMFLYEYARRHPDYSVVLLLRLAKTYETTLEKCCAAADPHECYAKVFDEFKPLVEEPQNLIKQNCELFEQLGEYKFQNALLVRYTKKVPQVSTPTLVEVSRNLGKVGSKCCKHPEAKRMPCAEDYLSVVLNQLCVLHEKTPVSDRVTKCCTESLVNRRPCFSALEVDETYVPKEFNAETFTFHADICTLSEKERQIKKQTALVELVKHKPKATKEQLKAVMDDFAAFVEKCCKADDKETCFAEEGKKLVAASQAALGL

B1: CD70-specific nanobody fusion protein ABDB6 (other)
chain: HHHHHHQVQLQESGGGSVQAGGSLRLSCVASDLIVNDGCMAWFRQVPGKEHEGVARIAIPTTPGSTLYADSVKGRFTISRDGAKNTLYLQMNSLKPEDTAVYYCAADQWASRGCTAIATIPAEFDYWGQGTQVTVSSGGGGSGGGGSGGGGSLAEAKVLANRELDKYGVSDFYKRLINKAKTVEGVEALKLHILAALPGGGGSLLQS
notes: 7
Regarding B1, the dissociation constant Kd in data set [1] is 0.0885 nM; in data set [2], 0.135 nM; in data set [3] it was 0.454 nM.

B2: CD70-specific nanobody fusion protein ABDB3 (other)
chain: HHHHHHQVQLQESGGGSVQAGGSLRLSCAASGIIVNDGCMAWFRQVPGKEREGVAGIVIGEYGGGTTYYADSVKGRFTISRDRAKNTLYLQMNSLKPEDTAMYYCAADQWASGGCTSIATFSDEFDYWGQGTQVTVSSGGGGSGGGGSGGGGSLAEAKVLANRELDKYGVSDFYKRLINKAKTVEGVEALKLHILAALPGGGGSLLQS
notes: 5
B2: the figures for the Kd in data set [1], in data set [2] and in data set [3] were 0.0742 nM, 0.11 nM and 0.38 nM, respectively.

B3: CD70-specific nanobody B3 (VHH)
VHH: QVQLQESGGGSVQAGGSLRLSCAASGIIVNDGCMAWFRQVPGKEREGVAGIVIGEYGGGTTYYADSVKGRFTISRDRAKNTLYLQMNSLKPEDTAMYYCAADQWASGGCTSIATFSDEFDYWGQGTQVTVSS
notes: Monovalent nanobody expressed in E. coli from pET-30a(+); any vector-derived tag is not described
As for B3, the Kd in data set [4] turned out to be 5.69 nM.

B4: [^68Ga]Ga-NOTA-B6: human CD70-specific 68Ga-labeled monovalent nanobody probe, B6 modified with p-SCN-Bn-NOTA (conjugate)
VHH: QVQLQESGGGSVQAGGSLRLSCVASDLIVNDGCMAWFRQVPGKEHEGVARIAIPTTPGSTLYADSVKGRFTISRDGAKNTLYLQMNSLKPEDTAVYYCAADQWASRGCTAIATIPAEFDYWGQGTQVTVSSGGGGSGGGGSLLQSHHHHHH
B4: the “uptake in the major excretory (kidneys) and metabolic (liver) organs” value in the data set on RCC models (No. 62 PDX) was “high nonspecific uptake”.

B5: CD70-specific nanobody B6 (VHH)
VHH: QVQLQESGGGSVQAGGSLRLSCVASDLIVNDGCMAWFRQVPGKEHEGVARIAIPTTPGSTLYADSVKGRFTISRDGAKNTLYLQMNSLKPEDTAVYYCAADQWASRGCTAIATIPAEFDYWGQGTQVTVSS
notes: as for B3
As for B5, in data set [4], the equilibrium dissociation constant (Kd) was found to be 3.73 nM.

In general, Kd refers to the constant that tells how readily two partners part at equilibrium.
